Nine molecules from patent US20150297748A1 (Daiichi Sankyo, published 2015) can be followed below.

Assay [1] has as its target T1, human B7-H3 variant 1 (human, UniProt Q5ZPR3 27-534).
T1 sequence: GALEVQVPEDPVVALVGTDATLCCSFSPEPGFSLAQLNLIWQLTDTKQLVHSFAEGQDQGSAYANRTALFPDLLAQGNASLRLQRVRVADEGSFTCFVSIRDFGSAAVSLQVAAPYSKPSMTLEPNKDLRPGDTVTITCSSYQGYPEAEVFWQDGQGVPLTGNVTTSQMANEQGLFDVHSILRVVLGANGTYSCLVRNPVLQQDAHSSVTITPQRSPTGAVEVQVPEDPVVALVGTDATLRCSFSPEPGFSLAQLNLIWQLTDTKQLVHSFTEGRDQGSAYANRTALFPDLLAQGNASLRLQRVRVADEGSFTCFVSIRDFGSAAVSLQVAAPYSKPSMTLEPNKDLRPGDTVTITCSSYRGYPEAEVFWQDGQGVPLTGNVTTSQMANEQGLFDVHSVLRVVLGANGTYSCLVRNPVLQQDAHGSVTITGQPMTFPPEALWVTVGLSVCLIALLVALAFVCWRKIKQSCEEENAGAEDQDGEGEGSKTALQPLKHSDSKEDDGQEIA
Briefly: cell-based or functional assay.

For assay [2], the target named is T2, CD30 (UniProt P28908 19-595, limits assumed).
T2 sequence (looked up): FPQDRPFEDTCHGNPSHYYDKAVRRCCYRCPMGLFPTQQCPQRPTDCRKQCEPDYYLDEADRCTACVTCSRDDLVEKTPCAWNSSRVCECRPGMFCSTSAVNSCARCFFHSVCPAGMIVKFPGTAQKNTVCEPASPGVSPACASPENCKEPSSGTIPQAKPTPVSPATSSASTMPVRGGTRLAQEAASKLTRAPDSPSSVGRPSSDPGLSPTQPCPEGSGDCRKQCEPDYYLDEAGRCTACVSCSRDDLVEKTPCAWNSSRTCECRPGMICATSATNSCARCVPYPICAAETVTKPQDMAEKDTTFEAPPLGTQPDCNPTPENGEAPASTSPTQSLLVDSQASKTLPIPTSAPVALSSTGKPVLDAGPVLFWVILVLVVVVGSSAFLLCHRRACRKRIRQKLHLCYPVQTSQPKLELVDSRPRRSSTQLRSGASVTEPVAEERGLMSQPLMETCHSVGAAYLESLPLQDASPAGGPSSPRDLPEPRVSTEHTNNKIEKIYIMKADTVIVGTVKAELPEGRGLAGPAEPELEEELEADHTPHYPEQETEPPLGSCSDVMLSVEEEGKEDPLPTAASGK
Put plainly: cell-based or functional assay.

B1: Antibody-drug conjugate (44) (antibody, human IgG1, kappa, V domains shown)
VH: QVQLVQSGAEVKKPGSSVKVSCKASGYTFTNYVMHWVRQAPGQGLEWMGYINPYNDDVKYNEKFKGRVTITADESTSTAYMELSSLRSEDTAVYYCARWGYYGSPLYYFDYWGQGTLVTVSS
VL: EIVLTQSPATLSLSPGERATLSCRASSRLIYMHWYQQKPGQAPRPLIYATSNLASGIPARFSGSGSGTDFTLTISSLEPEDFAVYYCQQWNSNPPTFGQGTKVEIKR
modifications: drug-linker 6-maleimidohexanoyl-GGFG-NH-CH2CH2-O-CH2-C(=O)-exatecan (compound of Process 3 of Example 43) on cysteines of the reduced hinge disulfide bonds; average 6.6 per antibody molecule; positions not given
On to B1, for which the “IC50, cytotoxic activity against the CEM_V1-3.1-2 cells” value in assay [1] was less than 0.1 nM.

B2: Antibody-drug conjugate (46) (antibody, human IgG1, kappa, V domains shown)
VH: QVQLVQSGAEVKKPGSSVKVSCKASGYTFTNYVMHWVRQAPGQGLEWMGYINPYNDDVKYNEKFKGRVTITADESTSTAYMELSSLRSEDTAVYYCARWGYYGSPLYYFDYWGQGTLVTVSS
VL: EIVLTQSPATLSLSPGERATLSCRASSRLIYMHWYQQKPGQAPRPLIYATSNLASGIPARFSGSGSGTDFTLTISSLEPEDFAVYYCQQWNSNPPTFGQGTKVEIKR
modifications: drug-linker 6-maleimidohexanoyl-GGFG-NH-CH2CH2-O-CH2-C(=O)-exatecan (compound of Process 3 of Example 43) on cysteines of the reduced hinge disulfide bonds; average 5.2 per antibody molecule; positions not given
Turning to B2, the “IC50, cytotoxic activity against the CEM_V1-3.1-2 cells” value in assay [1] is less than 0.1 nM.

B3: Antibody-drug conjugate (6) (antibody, human IgG1, kappa, V domains shown)
VH: QIQLQQSGPEVVKPGASVKISCKASGYTFTDYYITWVKQKPGQGLEWIGWIYPGSGNTKYNEKFKGKATLTVDTSSSTAFMQLSSLTSEDTAVYFCANYGNYWFAYWGQGTQVTVSA
VL: DIVLTQSPASLAVSLGQRATISCKASQSVDFDGDSYMNWYQQKPGQPPKVLIYAASNLESGIPARFSGSGSGTDFTLNIHPVEEEDAATYYCQQSNQDPWTFGGGTKLEIKR
modifications: drug-linker 6-maleimidohexanoyl-GGFG-NH-(CH2)3-C(=O)-exatecan (compound of Process 3 of Example 2) on cysteines of the reduced hinge disulfide bonds; average 3.3 per antibody molecule; positions not given
Regarding B3, in assay [2], the “IC50, cytotoxic activity against the SR cells” value (from here on “IC50 … against the SR cells”) was less than 0.01 nM.

B4: Antibody-drug conjugate (38) (antibody, V domains shown)
VH: QIQLQQSGPEVVKPGASVKISCKASGYTFTDYYITWVKQKPGQGLEWIGWIYPGSGNTKYNEKFKGKATLTVDTSSSTAFMQLSSLTSEDTAVYFCANYGNYWFAYWGQGTQVTVSA
VL: DIVLTQSPASLAVSLGQRATISCKASQSVDFDGDSYMNWYQQKPGQPPKVLIYAASNLESGIPARFSGSGSGTDFTLNIHPVEEEDAATYYCQQSNQDPWTFGGGTKLEIKR
modifications: drug-linker from the N-succinimidyl ester of suberoyl-GGFG-NH-(CH2)3-C(=O)-exatecan (compound of Process 1 of Example 37); average 2.7 per antibody molecule; chain and positions not stated
For B4, in assay [2], the “IC50 … against the SR cells” value was less than 0.01 nM.

B5: Antibody-drug conjugate (23) (antibody, V domains shown)
VH: QIQLQQSGPEVVKPGASVKISCKASGYTFTDYYITWVKQKPGQGLEWIGWIYPGSGNTKYNEKFKGKATLTVDTSSSTAFMQLSSLTSEDTAVYFCANYGNYWFAYWGQGTQVTVSA
VL: DIVLTQSPASLAVSLGQRATISCKASQSVDFDGDSYMNWYQQKPGQPPKVLIYAASNLESGIPARFSGSGSGTDFTLNIHPVEEEDAATYYCQQSNQDPWTFGGGTKLEIKR
modifications: drug-linker 3-maleimidopropanoyl-NH-(CH2CH2O)2-CH2CH2-C(=O)-GGFG-NH-(CH2)3-C(=O)-exatecan (compound of Process 1 of Example 14) on cysteines of the reduced hinge disulfide bonds; average 7.1 per antibody molecule; positions not given
As for B5, the “IC50 … against the SR cells” value in assay [2] was less than 0.01 nM.

B6: Antibody-drug conjugate (64) (antibody, V domains shown)
VH: QIQLQQSGPEVVKPGASVKISCKASGYTFTDYYITWVKQKPGQGLEWIGWIYPGSGNTKYNEKFKGKATLTVDTSSSTAFMQLSSLTSEDTAVYFCANYGNYWFAYWGQGTQVTVSA
VL: DIVLTQSPASLAVSLGQRATISCKASQSVDFDGDSYMNWYQQKPGQPPKVLIYAASNLESGIPARFSGSGSGTDFTLNIHPVEEEDAATYYCQQSNQDPWTFGGGTKLEIKR
modifications: drug-linker 6-maleimidohexanoyl-GGFG-NH-CH2-O-CH2-C(=O)-exatecan (compound of Process 8 of Example 58) on cysteines of the reduced hinge disulfide bonds; average 3.7 per antibody molecule; positions not given
Consider B6, for which the “IC50 … against the SR cells” value in assay [2] was less than 0.01 nM.

B7: Antibody-drug conjugate (22) (antibody, V domains shown)
VH: QIQLQQSGPEVVKPGASVKISCKASGYTFTDYYITWVKQKPGQGLEWIGWIYPGSGNTKYNEKFKGKATLTVDTSSSTAFMQLSSLTSEDTAVYFCANYGNYWFAYWGQGTQVTVSA
VL: DIVLTQSPASLAVSLGQRATISCKASQSVDFDGDSYMNWYQQKPGQPPKVLIYAASNLESGIPARFSGSGSGTDFTLNIHPVEEEDAATYYCQQSNQDPWTFGGGTKLEIKR
modifications: drug-linker 3-maleimidopropanoyl-NH-(CH2CH2O)2-CH2CH2-C(=O)-GGFG-NH-(CH2)3-C(=O)-exatecan (compound of Process 1 of Example 14) on cysteines of the reduced hinge disulfide bonds; average 2.5 per antibody molecule; positions not given
Take B7: the “IC50 … against the SR cells” value in assay [2] was less than 0.1 nM.

B8: Antibody-drug conjugate (7) (antibody, V domains shown)
VH: QIQLQQSGPEVVKPGASVKISCKASGYTFTDYYITWVKQKPGQGLEWIGWIYPGSGNTKYNEKFKGKATLTVDTSSSTAFMQLSSLTSEDTAVYFCANYGNYWFAYWGQGTQVTVSA
VL: DIVLTQSPASLAVSLGQRATISCKASQSVDFDGDSYMNWYQQKPGQPPKVLIYAASNLESGIPARFSGSGSGTDFTLNIHPVEEEDAATYYCQQSNQDPWTFGGGTKLEIKR
modifications: drug-linker 6-maleimidohexanoyl-GGFG-NH-(CH2)3-C(=O)-exatecan (compound of Process 3 of Example 2) on cysteines of the reduced hinge disulfide bonds; average 3.8 per antibody molecule; positions not given
Regarding B8, the “IC50 … against the SR cells” value in assay [2] was less than 0.01 nM.

B9: Antibody-drug conjugate (65) (antibody, V domains shown)
VH: QIQLQQSGPEVVKPGASVKISCKASGYTFTDYYITWVKQKPGQGLEWIGWIYPGSGNTKYNEKFKGKATLTVDTSSSTAFMQLSSLTSEDTAVYFCANYGNYWFAYWGQGTQVTVSA
VL: DIVLTQSPASLAVSLGQRATISCKASQSVDFDGDSYMNWYQQKPGQPPKVLIYAASNLESGIPARFSGSGSGTDFTLNIHPVEEEDAATYYCQQSNQDPWTFGGGTKLEIKR
modifications: drug-linker 6-maleimidohexanoyl-GGFG-NH-CH2-O-CH2-C(=O)-exatecan (compound of Process 8 of Example 58) on cysteines of the reduced hinge disulfide bonds; average 6.8 per antibody molecule; positions not given
Turning to B9, the “IC50 … against the SR cells” value in assay [2] is less than 0.01 nM.
